The results in this text go back to patent publication US20170008943A1 (Novo Nordisk, published 2017).

The chains are these.
B1: N^ε16-[(4S)-4-[[(4S)-4-[[(4S)-4-[[(4S)-4-acetamido-4-carboxybutanoyl]amino]-4-carboxybutanoyl]amino]-4-carboxybutanoyl]amino]-4-carboxybutanoyl]-[Imp1, His3, … (peptide)
peptide: [Desaminohistidyl]SHGTFTSDYSKYLEK([γGlu-γGlu-γGlu-γGlu-Ac])RRAQEFVQWLLST-OH
SMILES: CC(=O)N[C@@H](CCC(=O)N[C@@H](CCC(=O)N[C@@H](CCC(=O)N[C@@H](CCC(=O)NCCCC[C@H](NC(=O)[C@H](CCC(=O)O)NC(=O)[C@H](CC(C)C)NC(=O)[C@H](Cc1ccc(O)cc1)NC(=O)[C@H](CCCCN)NC(=O)[C@H](CO)NC(=O)[C@H](Cc1ccc(O)cc1)NC(=O)[C@H](CC(=O)O)NC(=O)[C@H](CO)NC(=O)[C@@H](NC(=O)[C@H](Cc1ccccc1)NC(=O)[C@@H](NC(=O)CNC(=O)[C@H](Cc1c[nH]cn1)NC(=O)[C@H](CO)NC(=O)CCc1c[nH]cn1)[C@@H](C)O)[C@@H](C)O)C(=O)N[C@@H](CCCNC(=N)N)C(=O)N[C@@H](CCCNC(=N)N)C(=O)N[C@@H](C)C(=O)N[C@@H](CCC(N)=O)C(=O)N[C@@H](CCC(=O)O)C(=O)N[C@@H](Cc1ccccc1)C(=O)N[C@H](C(=O)N[C@@H](CCC(N)=O)C(=O)N[C@@H](Cc1c[nH]c2ccccc12)C(=O)N[C@@H](CC(C)C)C(=O)N[C@@H](CC(C)C)C(=O)N[C@@H](CO)C(=O)N[C@H](C(=O)O)[C@@H](C)O)C(C)C)C(=O)O)C(=O)O)C(=O)O)C(=O)O
notes: Imp written X under substitutions
B2: N^ε24-[(4S)-4-[[(4S)-4-[[(4S)-4-[[(4S)-4-acetamido-4-carboxybutanoyl]amino]-4-carboxybutanoyl]amino]-4-carboxybutanoyl]amino]-4-carboxybutanoyl]-[Imp1, His3, … (peptide)
peptide: [Desaminohistidyl]SHGTFTSDYSKYLDLRRAQEFVK([γGlu-γGlu-γGlu-γGlu-Ac])WLLST-OH
SMILES: CC(=O)N[C@@H](CCC(=O)N[C@@H](CCC(=O)N[C@@H](CCC(=O)N[C@@H](CCC(=O)NCCCC[C@H](NC(=O)[C@@H](NC(=O)[C@H](Cc1ccccc1)NC(=O)[C@H](CCC(=O)O)NC(=O)[C@H](CCC(N)=O)NC(=O)[C@H](C)NC(=O)[C@H](CCCNC(=N)N)NC(=O)[C@H](CCCNC(=N)N)NC(=O)[C@H](CC(C)C)NC(=O)[C@H](CC(=O)O)NC(=O)[C@H](CC(C)C)NC(=O)[C@H](Cc1ccc(O)cc1)NC(=O)[C@H](CCCCN)NC(=O)[C@H](CO)NC(=O)[C@H](Cc1ccc(O)cc1)NC(=O)[C@H](CC(=O)O)NC(=O)[C@H](CO)NC(=O)[C@@H](NC(=O)[C@H](Cc1ccccc1)NC(=O)[C@@H](NC(=O)CNC(=O)[C@H](Cc1c[nH]cn1)NC(=O)[C@H](CO)NC(=O)CCc1c[nH]cn1)[C@@H](C)O)[C@@H](C)O)C(C)C)C(=O)N[C@@H](Cc1c[nH]c2ccccc12)C(=O)N[C@@H](CC(C)C)C(=O)N[C@@H](CC(C)C)C(=O)N[C@@H](CO)C(=O)N[C@H](C(=O)O)[C@@H](C)O)C(=O)O)C(=O)O)C(=O)O)C(=O)O
notes: as for B1
B3: N^ε20-[(4S)-4-[[(4S)-4-[[(4S)-4-[[(4S)-4-acetamido-4-carboxybutanoyl]amino]-4-carboxybutanoyl]amino]-4-carboxybutanoyl]amino]-4-carboxybutanoyl]-[Imp1, His3, … (peptide)
peptide: [Desaminohistidyl]SHGTFTSDYSKYLESRRAK([γGlu-γGlu-γGlu-γGlu-Ac])EFVQWLLST-OH
SMILES: CC(=O)N[C@@H](CCC(=O)N[C@@H](CCC(=O)N[C@@H](CCC(=O)N[C@@H](CCC(=O)NCCCC[C@H](NC(=O)[C@H](C)NC(=O)[C@H](CCCNC(=N)N)NC(=O)[C@H](CCCNC(=N)N)NC(=O)[C@H](CO)NC(=O)[C@H](CCC(=O)O)NC(=O)[C@H](CC(C)C)NC(=O)[C@H](Cc1ccc(O)cc1)NC(=O)[C@H](CCCCN)NC(=O)[C@H](CO)NC(=O)[C@H](Cc1ccc(O)cc1)NC(=O)[C@H](CC(=O)O)NC(=O)[C@H](CO)NC(=O)[C@@H](NC(=O)[C@H](Cc1ccccc1)NC(=O)[C@@H](NC(=O)CNC(=O)[C@H](Cc1c[nH]cn1)NC(=O)[C@H](CO)NC(=O)CCc1c[nH]cn1)[C@@H](C)O)[C@@H](C)O)C(=O)N[C@@H](CCC(=O)O)C(=O)N[C@@H](Cc1ccccc1)C(=O)N[C@H](C(=O)N[C@@H](CCC(N)=O)C(=O)N[C@@H](Cc1c[nH]c2ccccc12)C(=O)N[C@@H](CC(C)C)C(=O)N[C@@H](CC(C)C)C(=O)N[C@@H](CO)C(=O)N[C@H](C(=O)O)[C@@H](C)O)C(C)C)C(=O)O)C(=O)O)C(=O)O)C(=O)O
notes: as for B1
B4: N^ε24-[(4S)-4-[[(4S)-4-[[(4S)-4-[[(4S)-4-acetamido-4-carboxybutanoyl]amino]-4-carboxybutanoyl]amino]-4-carboxybutanoyl]amino]-4-carboxybutanoyl]-[Imp1, His3, … (peptide)
peptide: [Desaminohistidyl]SHGTFTSDYSKYLDARRAQDFVK([γGlu-γGlu-γGlu-γGlu-Ac])WLLST-OH
SMILES: CC(=O)N[C@@H](CCC(=O)N[C@@H](CCC(=O)N[C@@H](CCC(=O)N[C@@H](CCC(=O)NCCCC[C@H](NC(=O)[C@@H](NC(=O)[C@H](Cc1ccccc1)NC(=O)[C@H](CC(=O)O)NC(=O)[C@H](CCC(N)=O)NC(=O)[C@H](C)NC(=O)[C@H](CCCNC(=N)N)NC(=O)[C@H](CCCNC(=N)N)NC(=O)[C@H](C)NC(=O)[C@H](CC(=O)O)NC(=O)[C@H](CC(C)C)NC(=O)[C@H](Cc1ccc(O)cc1)NC(=O)[C@H](CCCCN)NC(=O)[C@H](CO)NC(=O)[C@H](Cc1ccc(O)cc1)NC(=O)[C@H](CC(=O)O)NC(=O)[C@H](CO)NC(=O)[C@@H](NC(=O)[C@H](Cc1ccccc1)NC(=O)[C@@H](NC(=O)CNC(=O)[C@H](Cc1c[nH]cn1)NC(=O)[C@H](CO)NC(=O)CCc1c[nH]cn1)[C@@H](C)O)[C@@H](C)O)C(C)C)C(=O)N[C@@H](Cc1c[nH]c2ccccc12)C(=O)N[C@@H](CC(C)C)C(=O)N[C@@H](CC(C)C)C(=O)N[C@@H](CO)C(=O)N[C@H](C(=O)O)[C@@H](C)O)C(=O)O)C(=O)O)C(=O)O)C(=O)O
notes: as for B1
B5: N^ε24-[(4S)-4-[[(4S)-4-[[(4S)-4-[[(4S)-4-acetamido-4-carboxybutanoyl]amino]-4-carboxybutanoyl]amino]-4-carboxybutanoyl]amino]-4-carboxybutanoyl]-[Imp1, His3, … (peptide)
peptide: [Desaminohistidyl]SHGTFTSDYSKYLDLRRAQDFVK([γGlu-γGlu-γGlu-γGlu-Ac])WLLST-OH
SMILES: CC(=O)N[C@@H](CCC(=O)N[C@@H](CCC(=O)N[C@@H](CCC(=O)N[C@@H](CCC(=O)NCCCC[C@H](NC(=O)[C@@H](NC(=O)[C@H](Cc1ccccc1)NC(=O)[C@H](CC(=O)O)NC(=O)[C@H](CCC(N)=O)NC(=O)[C@H](C)NC(=O)[C@H](CCCNC(=N)N)NC(=O)[C@H](CCCNC(=N)N)NC(=O)[C@H](CC(C)C)NC(=O)[C@H](CC(=O)O)NC(=O)[C@H](CC(C)C)NC(=O)[C@H](Cc1ccc(O)cc1)NC(=O)[C@H](CCCCN)NC(=O)[C@H](CO)NC(=O)[C@H](Cc1ccc(O)cc1)NC(=O)[C@H](CC(=O)O)NC(=O)[C@H](CO)NC(=O)[C@@H](NC(=O)[C@H](Cc1ccccc1)NC(=O)[C@@H](NC(=O)CNC(=O)[C@H](Cc1c[nH]cn1)NC(=O)[C@H](CO)NC(=O)CCc1c[nH]cn1)[C@@H](C)O)[C@@H](C)O)C(C)C)C(=O)N[C@@H](Cc1c[nH]c2ccccc12)C(=O)N[C@@H](CC(C)C)C(=O)N[C@@H](CC(C)C)C(=O)N[C@@H](CO)C(=O)N[C@H](C(=O)O)[C@@H](C)O)C(=O)O)C(=O)O)C(=O)O)C(=O)O
notes: as for B1
B6: N^ε24-[(4S)-4-[[(4S)-4-[[(4S)-4-[[(4S)-4-acetamido-4-carboxybutanoyl]amino]-4-carboxybutanoyl]amino]-4-carboxybutanoyl]amino]-4-carboxybutanoyl]-[Imp1, His3, … (peptide)
peptide: [Desaminohistidyl]SHGTFTSDYSKYLESRRAQDFVK([γGlu-γGlu-γGlu-γGlu-Ac])WLLST-OH
SMILES: CC(=O)N[C@@H](CCC(=O)N[C@@H](CCC(=O)N[C@@H](CCC(=O)N[C@@H](CCC(=O)NCCCC[C@H](NC(=O)[C@@H](NC(=O)[C@H](Cc1ccccc1)NC(=O)[C@H](CC(=O)O)NC(=O)[C@H](CCC(N)=O)NC(=O)[C@H](C)NC(=O)[C@H](CCCNC(=N)N)NC(=O)[C@H](CCCNC(=N)N)NC(=O)[C@H](CO)NC(=O)[C@H](CCC(=O)O)NC(=O)[C@H](CC(C)C)NC(=O)[C@H](Cc1ccc(O)cc1)NC(=O)[C@H](CCCCN)NC(=O)[C@H](CO)NC(=O)[C@H](Cc1ccc(O)cc1)NC(=O)[C@H](CC(=O)O)NC(=O)[C@H](CO)NC(=O)[C@@H](NC(=O)[C@H](Cc1ccccc1)NC(=O)[C@@H](NC(=O)CNC(=O)[C@H](Cc1c[nH]cn1)NC(=O)[C@H](CO)NC(=O)CCc1c[nH]cn1)[C@@H](C)O)[C@@H](C)O)C(C)C)C(=O)N[C@@H](Cc1c[nH]c2ccccc12)C(=O)N[C@@H](CC(C)C)C(=O)N[C@@H](CC(C)C)C(=O)N[C@@H](CO)C(=O)N[C@H](C(=O)O)[C@@H](C)O)C(=O)O)C(=O)O)C(=O)O)C(=O)O
notes: as for B1
B7: N^ε24-[(4S)-4-[[(4S)-4-[[(4S)-4-[[(4S)-4-acetamido-4-carboxybutanoyl]amino]-4-carboxybutanoyl]amino]-4-carboxybutanoyl]amino]-4-carboxybutanoyl]-[Imp1, His3, … (peptide)
peptide: [Desaminohistidyl]SHGTFTSDYSKYLESRRAQEFVK([γGlu-γGlu-γGlu-γGlu-Ac])WLLET-OH
SMILES: CC(=O)N[C@@H](CCC(=O)N[C@@H](CCC(=O)N[C@@H](CCC(=O)N[C@@H](CCC(=O)NCCCC[C@H](NC(=O)[C@@H](NC(=O)[C@H](Cc1ccccc1)NC(=O)[C@H](CCC(=O)O)NC(=O)[C@H](CCC(N)=O)NC(=O)[C@H](C)NC(=O)[C@H](CCCNC(=N)N)NC(=O)[C@H](CCCNC(=N)N)NC(=O)[C@H](CO)NC(=O)[C@H](CCC(=O)O)NC(=O)[C@H](CC(C)C)NC(=O)[C@H](Cc1ccc(O)cc1)NC(=O)[C@H](CCCCN)NC(=O)[C@H](CO)NC(=O)[C@H](Cc1ccc(O)cc1)NC(=O)[C@H](CC(=O)O)NC(=O)[C@H](CO)NC(=O)[C@@H](NC(=O)[C@H](Cc1ccccc1)NC(=O)[C@@H](NC(=O)CNC(=O)[C@H](Cc1c[nH]cn1)NC(=O)[C@H](CO)NC(=O)CCc1c[nH]cn1)[C@@H](C)O)[C@@H](C)O)C(C)C)C(=O)N[C@@H](Cc1c[nH]c2ccccc12)C(=O)N[C@@H](CC(C)C)C(=O)N[C@@H](CC(C)C)C(=O)N[C@@H](CCC(=O)O)C(=O)N[C@H](C(=O)O)[C@@H](C)O)C(=O)O)C(=O)O)C(=O)O)C(=O)O
notes: as for B1

*1 amine or outer side, *2 acyl side, *3 side chain or, on linkers, in order; H or OH if unused. Side-chain parts run from the residue outwards. [ ]: non-standard residue; d: D form. The star is where a group is joined. γGlu = O=C(O)[C@H](CCC(=O)[*:2])N[*:1]; Desaminohistidyl = O=C(CCc1c[nH]cn1)*

T1 sequence (P47871 26-477): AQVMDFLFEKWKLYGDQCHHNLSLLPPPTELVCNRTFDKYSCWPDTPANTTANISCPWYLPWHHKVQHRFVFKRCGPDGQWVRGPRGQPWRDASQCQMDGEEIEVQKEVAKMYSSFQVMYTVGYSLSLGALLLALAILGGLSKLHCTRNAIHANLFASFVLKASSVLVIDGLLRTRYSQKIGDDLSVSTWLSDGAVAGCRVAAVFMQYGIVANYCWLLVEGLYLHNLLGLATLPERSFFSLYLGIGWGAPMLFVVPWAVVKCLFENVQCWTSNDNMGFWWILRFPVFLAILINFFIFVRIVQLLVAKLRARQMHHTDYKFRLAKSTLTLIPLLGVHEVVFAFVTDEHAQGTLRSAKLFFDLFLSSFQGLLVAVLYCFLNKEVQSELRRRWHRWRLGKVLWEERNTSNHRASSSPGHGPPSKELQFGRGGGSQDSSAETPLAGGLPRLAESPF

The first test has as its target T1, human glucagon receptor (human, UniProt P47871 26-477). Description: cell-based or functional assay.
As to B1, the “EC50 hGlucagonR (pM), CRE luciferase reporter in BHK cells” value (“EC50 hGlucagonR (pM)” below) turned out to be 105 pM.

Turning to B2, the “EC50 hGlucagonR (pM)” value came to 1 pM.

Consider B3, for which the “EC50 hGlucagonR (pM)” value came to 41 pM.

Take B4: the “EC50 hGlucagonR (pM)” value amounted to 4 pM.

As to B5, the “EC50 hGlucagonR (pM)” value was determined as 3 pM.

As for B6, the “EC50 hGlucagonR (pM)” value is 12 pM.

In the case of B7, the “EC50 hGlucagonR (pM)” value was 17 pM.

Another test deals with T1, human glucagon receptor. Description: displacement of 125I-glucagon from BHK membranes with human glucagon receptor (SPA), Assay (II)(b). (Loss of bound radioactivity is the signal in a displacement assay; it reports binding, not function.)
As usually defined, the IC50 is the concentration that gives 50% inhibition. The molecule B1 returned an IC50 of 24.4 nM.

Take B2: the IC50 is 0.2 nM. This IC50 is about 120-fold lower than that of the molecule before.

B3: the IC50 amounted to 7.6 nM.

B4 came in with an IC50 of 0.9 nM.

As for B5, the IC50 stood at 0.5 nM.

B6 returned an IC50 of 6.2 nM.

Consider B7, for which the IC50 turned out to be 8.7 nM.
